Measured values taken from patent publication US20210302413A1 (Johns Hopkins, published 2021).

Molecular target: T1, endogenous human zinc transporter 8 (ZnT8) in EndoC-βH1 cells (human, UniProt Q8IWU4 1-369)
T1 construct: whole, on cells; Intracellular membrane protein, probed in fixed and permeabilised cells (in-cell ELISA), in SDS lysates (immunoblot) or in liposomes (SUVs) made from the cells; On blots two natural splice variants (A and B) are detected; also called endogenous ZnT8; SLC30A8 product
T1 sequence (looked up): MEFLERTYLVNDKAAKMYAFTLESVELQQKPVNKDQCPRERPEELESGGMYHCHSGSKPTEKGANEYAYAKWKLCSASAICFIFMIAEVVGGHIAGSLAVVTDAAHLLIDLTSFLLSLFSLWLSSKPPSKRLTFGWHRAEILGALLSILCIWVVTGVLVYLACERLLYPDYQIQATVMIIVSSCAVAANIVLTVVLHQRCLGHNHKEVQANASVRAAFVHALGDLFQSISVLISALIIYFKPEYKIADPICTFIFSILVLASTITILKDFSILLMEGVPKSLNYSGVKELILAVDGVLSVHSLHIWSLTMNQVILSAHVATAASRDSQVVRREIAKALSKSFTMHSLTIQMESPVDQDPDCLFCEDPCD
Assay: in-cell ELISA, 95×10^3 EndoC-βH1 cells against the same number of rat INS-1E cells
Experimental: Next, mAb20 or a rabbit anti-HLA-I antibody (Proteintech, Cat. #15240-1-AP) was 1:600 or 1:60 diluted to Permeabilization/Wash Buffer I plus 0.5% BSA. Cells in each well were incubated with the diluted antibody solution for 2 hr at 37° C., washed once, and then exposed to a HRP-conjugated anti-mouse IgG (H+L) (Invitrogen, Cat. #62-6520) or anti-rabbit IgG (H+L) antibody (Invitrogen, Cat. #62-6120) in a 1:3000 dilution in Permeabilization/Wash Buffer I plus 0.1% BSA. After 1 hr incubation with the secondary antibody at RT, cells were washed three times to remove unbound antibodies before adding SuperSignal ELISA Femto Substrate (ThermoFisher Scientific, Cat. #37075). The HRP reaction was terminated at 5 min by transferring the reaction mixture to a 96-well opaque microplate for chemiluminescence quantification on a FlexStation-3 multi-mode microplate reader.
Assay validation. A ZnT8-specific ELISA was developed to track the endogenous ZnT8 level in EndoC-βH1 cells immobilized to a 96-well plate by paraformaldehyde fixation, followed by immunostaining and horseradish peroxidase (HRP) chemiluminescence. The non-specific background was estimated using rat insulinoma INS-1E and human HEK293 cells as negative controls. […] The signal-to-noise ratio at 95×10^3 cells was 3.9 (Z′ score=0.8) over a background detected from a same number of INS-1E cells (FIG. 1A). […]

signal-to-noise ratio: 3.9
B1: anti-ZnT8 monoclonal antibody mAb20 (antibody, mouse IgG1, kappa, V domains shown)
VH: QIQLVQSGPELKKPGETVKISCKASGYIFTNYPMHWVKQAPGKGLKWMGWINTYSGVPTHADDFKGRFAFSLETSANSAFLQINNLKNEDTATYFCTRSRITPTGGYAMDYWGQGTSVTVSS
VL: DVVMTQTPLSLPVSLGDQASISCRSSQSLVHSNGNTYLHWYLQKPGQSPNLLISKVSNRFSGVPERFSGSGSGTDFTLKISRVEAEDLGVYFCSQNTHVPWTFGGGTKLEIKR
notes: Mouse monoclonal antibody; Used free (1:600 of a 1 mg/ml stock), biotinylated, or crosslinked to Dynabeads through NHS-PEG5K-NHS; also called mouse mAb20; biotinylated mAb20
